Legend:
[1] = test system: peripheral blood mononuclear cells (PBMCs); test: One-way mixed lymphocyte reaction (MLR); assay type: cell-based, human; settings: for Proliferated cells (% of all CPD stained), Average: 60 mg tissue, 250K cells, 5 days; for Stimulation Index: vs PBMCs + saline
Protocol: (§1) Cancellous and cortical bone tissue samples were obtained, processed and combined, to produce LyoGraft Bone Grafts. From each donor, cancellous tissue samples comprising cancellous bone were recovered and processed to provide cancellous granules, and cortical bone tissue samples were recovered and processed to provide cortical fibers. Quantities of cancellous granules and cortical fibers derived from the same donor were measured and combined to produce three test samples per donor, each of which contained about 40 wt % cancellous granules and about 60 wt % cortical fibers, the wt % being based on the total weight of the combined cancellous granules and cortical fibers of each sample. The total weights of the test samples (i.e., each comprising both cancellous granules and cortical fibers) ranged from 1.3 g to 1.6 g. The test samples were preserved after contact with protectants in solution, in accordance with the methods described hereinabove. Peripheral blood mononuclear cells (PBMCs) were procured from three unique blood donors in order to test for a one-way and two-war mixed lymphocyte reaction (MLR) assay. In a one-way set up, PBMCs are exposed to a test article, the lyopreserved tissue samples, and PBMC stimulation or lack thereof is assessed. In a two-way set up, mismatched blood donors are exposed to one another, and an ongoing reaction is stimulated. This ongoing reaction is then put in presence of a test article, the lyopreserved tissue samples, and stimulation or inhibition of this ongoing reaction are assessed. […] Two-way MLR testing was performed on three lyopreserved donor lots to assess the inhibitory or stimulatory effects of an ongoing/developing immunogenic reaction between two mismatched blood donors.
• 11. Blood was obtained from three unique donors and PBMCs were isolated. • 12. PBMCs were stained with a tracking dye, CPD-670, and added to 96-well round bottom culture plates for one-way MLR assay. • 12.1 This dye is used to determine whether or not an immune response has been induced. If there is an immune reaction, cells will proliferate in response to a stimulator, in this case lyopreserved tissue, and dilute the CPD-670 stain. The dilution of the stain decreases the fluorescence signal which will be used to measure any differences across test samples compared to the saline negative control and concanavalin A positive control. • 13. Lyopreserved samples are prepared by adding 30 mL of sterile saline USP to smaller units (Donor 1 and 3) or filling 2 oz jar to the top (60 mL) with saline for larger units (Donor 2), incubating for 2 mins, decanting, and tap-drying with sterile gauze. • 14. 60 mg of lyopreserved tissue per donor and 20 uL of saline were added in tripliciate for each PBMC donor in 96 well plates. • 14.1 Saline is used as a negative control. • 15. PBMCs were added to each test group (250K cells) and incubated for 5 days at 37° C. in 5% CO2 in humidifier incubator. • 16. To calculate % proliferation, cells with decreased dye fluorescent signal were compared to the total number of positively stained cells. • 17. Concanavalin A (ConA) was used as a stimulation positive control to ensure that cells (PBMC) were in good condition to proliferate. • 18. Stimulation Index (SI) was calculated as proliferating cell percentage from wells with PBMCs+lyopreserved tissue sample divided by proliferating cell percentage from PBMCs+saline.

[2] = test system: mismatched peripheral blood mononuclear cells (PBMCs); test: Two-way mixed lymphocyte reaction (MLR); assay type: cell-based, human; settings: for Stimulation Index: vs same MLR + saline
Protocol: as §1
• 19. Cells (PBMC) from each of two donors were added to wells of 96-well round bottom culture plates. • 20. Only cells from one of the two donors were stained with tracking dye, CPD-670, considered the responder cells. The other donor cells were left unstained, considered the inducer cells. • 21. Assay was repeated using 3 different combinations of responder/inducer cells. • 22. The amount of proliferating responder cells indicates an immune reaction induced by the mismatched inducer cells and is shown as cells with reduced dye content after six days of co-incubation. • 23. Virtuos samples are prepared by adding 30 mL of sterile saline USP to smaller units (Donor 1 and 3) or filling 2 oz jar to the top (60 mL) with saline for larger units (Donor 2), incubating for 2 mins, decanting, and tap-drying with sterile gauze. • 24. 60 mg of lyopreserved tissue per donor and 20 uL of saline were added in triplicate for each PBMC donor in 96 well plates. • 24.1 Saline is used as a negative control. • 25. PBMCs from two mismatched blood donors were added to each test group (250K cells per blood donor) and incubated for 5 days at 37° C. in 5% CO2 in humidifier incubator. • 26. Concanavalin A (ConA) was used as a stimulation positive control to ensure that cells (PBMC) were in good condition to proliferate. • 27. Stimulation Index (SI) was calculated as proliferating cell percentage from wells with two mismatched donors with lyopreserved tissue divided by proliferating cell percentage from wells with the same mismatched donor cells treated with saline.

[3] = Donor A-CPD + Donor B-Unstained MLR
[4] = Donor B-CPD + Donor C-Unstained MLR
[5] = Donor C-CPD + Donor A-Unstained MLR

## Concanavalin A [ConA]
[1]; PBMC Donor A
  Proliferated cells (% of all CPD stained), Average: 45.2%
  Stimulation Index: 28.0
[1]; PBMC Donor B
  Proliferated cells (% of all CPD stained), Average: 61.5%
  Stimulation Index: 100.3
[1]; PBMC Donor C
  Proliferated cells (% of all CPD stained), Average: 60.6%
  Stimulation Index: 155.4
[2]; [3]
  Proliferated cells (% of all CPD stained), Average: 57.8%
  Stimulation Index: 8.1
[2]; [4]
  Proliferated cells (% of all CPD stained), Average: 39.5%
  Stimulation Index: 5.3
[2]; [5]
  Proliferated cells (% of all CPD stained), Average: 50.6%
  Stimulation Index: 4.9
